The chains are these.
B1: HSV-1 protease (enzyme)
chain: MAADAPGDRMEEPLPDRAVPIYVAGFLALYDSGDSGELALDPDTVRAALPPDNPLPINVNHRAGCEVGRVLAVVDDPRGPFFVGLIACVQLERVLETAASAAIFERRGPPLSREERLLYLITNYLPSVSLATKRLGGEAHPDRTLFAHVALCAIGRRLGTIVTYDTGLDAAIAPFRHLSPASREGARRLAAEAELALSGRTWAPGVEALTHTLLSTAVNNMMLRDRWSLVAERRRQAGIAGHTYLQA
B2: unliganded HSV-2 protease (enzyme)
chain: MASAEMRERLEAPLPDRAVPIYVAGFLALYDSGDPGELALDPDTVRAALPPENPLPINVNHRARCEVGRVLAVVNDPRGPFFVGLIACVQLERVLETAASAAIFERRGPALSREERLLYLITNYLPSVSLSTKRRGDEVPPDRTLFAHVALCAIGRRLGTIVTYDTSLDAAIAPFRHLDPATREGVRREAAEAELALAGRTWAPGVEALTHTLLSTAVNNMMLRDRWSLVAERRRQAGIAGHTYLQA
B3: CMV A143V protease (enzyme)
chain: MTMDEQQSQAVAPVYVGGFLARYDQSPDEAELLLPRDVVEHWLHAQGQGQPSLSVALPLNINHDDTAVVGHVAAMQSVRDGLFCLGCVTSPRFLEIVRRASEKSELVSRGPVSPLQPDKVVEFLSGSYAGLSLSSRRCDDVEVATSLSGSETTPFKHVALCSVGRRRGTLAVYGRDPEWVTQRFPDLTAADRDGLRAQWQRCGSTAVDASGDPFRSDSYGLLGNSVDALYIRERLPKLRYDKQLVGVTERESYVKA
B4: protease from delta9 LQAS-12aa ext H6(C) VZV (enzyme)
chain: MEALYVAGLYALYSKDEGELNITPEIVRSALPPTSKIPINIDHRKDCVVGEVIAIIEDIRGPFFLGIVRCPQLHAVLFEAAHSNFFGNRDSVLSPLERALYLVTNYLPSVSLSSKRLSPNEIPDGNFFTHVALCVVGRRVGTVVNYDCTPESSIEPFRVLSMESKARLLSLVKDYAGLNKVWKVSEDKLAKVLLSTAVNNMLLRDRWDVVAKRRREAGIMGHVYLQA

The data set concerns the molecule itself. The data set can be described thus: crystal structure, homodimer.
As for B1, the binding result is recorded as “binds”. In the case of B2 it was “binds”; in that of B3, “binds”. In the case of B4 it was “binds”.

The values are drawn from patent US6083711, “Proteases compositions capable of binding to said site, and methods of use thereof” (SmithKline Beecham Corporation, dated 2000).
